Measured values: paper PMC3234860 (The Journal of Biological Chemistry, 2011)

Key:
Sfr1 = molecular target: T1, Sfr1 (S. pombe, UniProt Q9USV1 1-299); test: AUC
T1 sequence: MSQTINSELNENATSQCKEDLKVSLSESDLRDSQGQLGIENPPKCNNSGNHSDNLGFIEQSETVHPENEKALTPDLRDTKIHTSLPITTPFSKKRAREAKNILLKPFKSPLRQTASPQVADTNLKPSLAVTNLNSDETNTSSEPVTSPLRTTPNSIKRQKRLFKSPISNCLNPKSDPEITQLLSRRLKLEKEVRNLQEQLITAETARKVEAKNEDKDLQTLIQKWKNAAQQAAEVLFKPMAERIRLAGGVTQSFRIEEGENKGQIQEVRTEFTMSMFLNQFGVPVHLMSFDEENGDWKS

native MS = molecular target: the molecule itself; test: native MS

B1: Swi5 (natural protein)
chain: MEKSQLESRVHLLEQQKEQLESSLQDALAKLKNRDAKQTVQKHIDLLHTYNEIRDIALGMIGKVAEHEKCTSVELFDRFGVNGSE
B1 was tested, and the “stoichiometry N” value (Sfr1) was 1 Swi5:Sfr1 and the “stoichiometry N” value (native MS) was 2.
